Source: patent EP3689907A1
Where a chain is given by its changes, count along the chain named. Values belong to the binder of their own block, whether it stands above or below them.

Key:
human IL-17A (human) [1] = target: human IL-17A (human) (UniProt Q16552); experiment: IL-17A/IL-17RA competitive ELISA: biotinylated hIL-17A preincubated with scFv, binding to coated hIL-17RA
human IL-17A (human) [2] = target: human IL-17A (human) (UniProt Q16552); experiment: cell-based or functional assay
human IL-17A (human) [3] = target: human IL-17A (human) (UniProt Q16552); experiment: SPR (Biacore T200), direct setup: IL-17A amine-coupled to CM5 chip, scFv as analyte
human IL-17A (human) [4] = target: human IL-17A (human) (UniProt Q16552); experiment: IL-17A/IL-17RA competitive ELISA: biotinylated hIL-17A preincubated with scFv, binding to coated hIL-17RA; reference secukinumab
human IL-17A (human) [5] = target: human IL-17A (human) (UniProt Q16552); experiment: SPR (Biacore T200), capture setup: biotinylated human IL-17A captured with Biotin-CAPture kit, scFv as analyte

IC50 (human IL-17A (human) [1]): 0.9 ng/mL | Neutralization of IL17A in HT-29 assay, rel. IC50* (IC50, secukinumab/IC50, Test Sample) (human IL-17A (human) [2]): 196 | Potency in HT-29 assay, IC50 [ng/mL] (human IL-17A (human) [2]): 0.13 ng/mL | Potency in HT-29 assay, rel. IC50* (IC50, secukinumab/IC50, Test Sample) (human IL-17A (human) [2]): 196 | Kd (human IL-17A (human) [3]): 0.0376 nM | koff (human IL-17A (human) [3]): 4.07e-05 s⁻¹ | kon (human IL-17A (human) [3]): 1.08e+06 M⁻¹ s⁻¹ | rel. IC50 (IC50, secukinumab/IC50, Test Sample) (human IL-17A (human) [4]): 40.9 | Kd (human IL-17A (human) [5]): 0.367 nM | koff (human IL-17A (human) [5]): 0.000142 s⁻¹ | kon (human IL-17A (human) [5]): 387000 M⁻¹ s⁻¹
B1: PRO592 (scFv)
scFv: DIQMTQSPSSLSASVGDRVTITCQASESIYRYLSWYQQKPGKAPKLLIYLASTLTSGVPSRFSGSGSGTDFTLTISSLQPEDFATYYCQSNFGTASTTYYNTFGGGTKLTVLGGGGGSGGGGSGGGGSGGGGSEVQLVESGGGLVQPGGSLTLSCAASGFSFSGFYYMCWVRQAPGKGLEWIGCIDTGDGTTYYASWAKGRFTISRDNSKNTVYLQMNSLRAEDTAVYYCARDAAYGGYAYPAHGMDLWGPGTLVTVSS

IC50 (human IL-17A (human) [1]): 1.8 ng/mL | Neutralization of IL17A in HT-29 assay, rel. IC50* (IC50, secukinumab/IC50, Test Sample) (human IL-17A (human) [2]): 191 | Potency in HT-29 assay, IC50 [ng/mL] (human IL-17A (human) [2]): 0.1 ng/mL | Potency in HT-29 assay, rel. IC50* (IC50, secukinumab/IC50, Test Sample) (human IL-17A (human) [2]): 191 | Kd (human IL-17A (human) [3]): 0.0403 nM | koff (human IL-17A (human) [3]): 4.55e-05 s⁻¹ | kon (human IL-17A (human) [3]): 1.13e+06 M⁻¹ s⁻¹ | rel. IC50 (IC50, secukinumab/IC50, Test Sample) (human IL-17A (human) [4]): 22.9 | Kd (human IL-17A (human) [5]): 0.119 nM | koff (human IL-17A (human) [5]): 0.000144 s⁻¹ | kon (human IL-17A (human) [5]): 1.21e+06 M⁻¹ s⁻¹
B2: PRO571 (scFv)
scFv: B1 scFv with T152R, P251Q
